Test [1] has as its target T1, B7-H3 (human).
T1 chain: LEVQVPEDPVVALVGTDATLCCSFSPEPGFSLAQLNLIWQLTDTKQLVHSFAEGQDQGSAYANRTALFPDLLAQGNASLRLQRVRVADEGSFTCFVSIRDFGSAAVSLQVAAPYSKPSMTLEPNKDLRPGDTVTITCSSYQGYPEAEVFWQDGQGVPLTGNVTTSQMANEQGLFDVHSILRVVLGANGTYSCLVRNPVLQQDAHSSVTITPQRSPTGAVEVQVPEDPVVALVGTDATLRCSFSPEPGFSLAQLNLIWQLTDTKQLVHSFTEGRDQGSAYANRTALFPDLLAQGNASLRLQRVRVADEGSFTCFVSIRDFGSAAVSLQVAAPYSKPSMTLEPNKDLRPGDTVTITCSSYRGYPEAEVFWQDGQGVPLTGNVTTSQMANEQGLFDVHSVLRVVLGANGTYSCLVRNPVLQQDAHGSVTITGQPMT
Description: competition ELISA (phage). On the technique in general: In an ELISA, binding on a coated surface is turned into a signal by an enzyme label.

The target of test [2] is T1, B7-H3. Kind of test: competition ELISA (phage).
The target in test [3] is T1, B7-H3. Kind of test: Octet BLI; conc. 1.56 nM.
Test [4] has as its target T1, B7-H3. Kind of test: Octet BLI; conc. 100 nM.
Test [5] concerns the target T1, B7-H3. Kind of test: Octet BLI; conc. 50 nM.
Test [6] has as its target T1, B7-H3. Description: Octet BLI; conc. 12.5 nM.
Test [7] has as its target T1, B7-H3. Description: Octet BLI; conc. 6.25 nM. A general note: BLI is a label-free optical method that tracks binding on a fibre tip over time.
The target in test [8] is T1, B7-H3. Description: Octet BLI; conc. 25 nM.
Test [9] has as its target T1, B7-H3. Kind of test: Octet BLI; conc. 3.13 nM.

Like-named read-outs stand apart in the source and are kept apart here.

By IC50 is commonly meant the concentration that inhibits the measured activity by half. Read a high IC50 as a need for much substance. In general, Kd refers to a measure of binding affinity in units of concentration. Lower therefore signals higher affinity.

B1: 2-8 (antibody, V domains shown)
VH: QVQLQQSGAEVKKPGASVKVSCKASGYTFTNYDINWVRQAPGQGLEWIGWIFPGDGSTQYNEKFKGRATLTTDTSTSTAYMELSSLRSEDTAVYFCARQTTGTWFAYWGQGTLVTVSS
VL: DIVLTQSPATLSLSPGERATLSCRASQSISEYLHWYQQKPGQAPRLLIKHASQSISGIPARFSGSGSGSDFTLTISSLEPEDFAVYYCQNGHSFPLTFGGGTKVEIKR
B1: in test [1], the concentration for half-maximal inhibition (IC50) came out at 11.4 nM.

B2: 1-1 (antibody, V domains shown)
VH: QVQLQQSGAEVKKPGASVKVSCKASGYTFTNYDINWVRQAPGQGLEWIGWIFPGDGSTQYNGKFKGRATLTTDTSTSTAYMELSSLRSEDTAVYFCARQTTGTWFAYWGQGTLVTVSS
VL: DIVLTQSPATLSLSPGERATLSCRASQSISPYLHWYQQKPGQAPRLLIKYASQSWSGIPARFSGSGSGSDFTLTISSLEPEDFAVYYCQNGHSFPLTFGGGTKVEIKR
For the molecule B2, the IC50 in test [2] amounted to 8.8 nM.

B3: 1-4 (antibody, V domains shown)
VH: QVQLQQSGAEVKKPGASVKVSCKASGYTFTNYDINWVRQAPGQGLEWIGWIFPGDGSTQYNPKFKGRATLTTDTSTSTAYMELSSLRSEDTAVYFCARQTTGTWFAYWGQGTLVTVSS
VL: DIVLTQSPATLSLSPGERATLSCRASQSISTYLHWYQQKPGQAPRLLIKEASQSISGIPARFSGSGSGSDFTLTISSLEPEDFAVYYCQNGHSFPLTFGGGTKVEIKR
As to B3, the IC50 in [2] worked out at 5.6 nM.

B4: 1-2 (antibody, V domains shown)
VH: QVQLQQSGAEVKKPGASVKVSCKASGYTFTNYDINWVRQAPGQGLEWIGWIFPGDGSTQYNETFKGRATLTTDTSTSTAYMELSSLRSEDTAVYFCARQTTGTWFAYWGQGTLVTVSS
VL: DIVLTQSPATLSLSPGERATLSCRASQSISKYLHWYQQKPGQAPRLLIKYANQSIRGIPARFSGSGSGSDFTLTISSLEPEDFAVYYCQNGHSFPLTFGGGTKVEIKR
In test [2], B4 yielded an IC50 of 10 nM.

B5: 2-5 (antibody, V domains shown)
VH: QVQLQQSGAEVKKPGASVKVSCKASGYTFTNYDINWVRQAPGQGLEWIGWIFPGDGSTQYNEKFKGRATLTTDTSTSTAYMELSSLRSEDTAVYFCARQTTSTWFAYWGQGTLVTVSS
VL: DIVLTQSPATLSLSPGERATLSCRASQIISDYLHWYQQKPGQAPRLLIKYASQLISGIPARFSGSGSGSDFTLTISSLEPEDFAVYYCQNGHSFPLTFGGGTKVEIKR
Take B5: the half-maximal inhibitory concentration (IC50) in [1] came to 85 nM.

B6: 8 (2-8Ig) (antibody, V domains shown)
VH: QVQLQQSGAEVKKPGASVKVSCKASGYTFTNYDINWVRQAPGQGLEWIGWIFPGDGSTQYNEKFKGRATLTTDTSTSTAYMELSSLRSEDTAVYFCARQTTGTWFAYWGQGTLVTVSS
VL: DIVLTQSPATLSLSPGERATLSCRASQSISEYLHWYQQKPGQAPRLLIKHASQSISGIPARFSGSGSGSDFTLTISSLEPEDFAVYYCQNGHSFPLTFGGGTKVEIKR
In the case of B6, the equilibrium dissociation constant (Kd) in test [3] worked out at 0.0135 nM; in test [4] it was 0.0884 nM; in test [5], 0.0401 nM; in [6] it was 0.0234 nM; in test [7], 0.0179 nM; in test [8] it was 0.0309 nM. Further, the equilibrium dissociation constant (Kd) in [9] worked out at 0.0218 nM.

B7: 1-5 (antibody, V domains shown)
VH: QVQLQQSGAEVKKPGASVKVSCKASGYTFTNYDINWVRQAPGQGLEWIGWIFPGDGSTQYNEKFKGRATLTTDTSTSTAYMELSSLRSEDTAVYFCARQTTGTWFAYWGQGTLVTVSS
VL: DIVLTQSPATLSLSPGERATLSCRASQSISHYLHWYQQKPGQAPRLLIKYASQSLSGIPARFSGSGSGSDFTLTISSLEPEDFAVYYCQNGHSFPLTFGGGTKVEIKR
Molecule B7 showed an IC50 in test [2] of 5.1 nM.

B8: 1-7 (antibody, V domains shown)
VH: QVQLQQSGAEVKKPGASVKVSCKASGYTYTNYDINWVRQAPGQGLEWIGWIFPGDGSTQYNEKFKGRATLTTDTSTSTAYMELSSLRSEDTAVYFCARQTTGTWFAYWGQGTLVTVSS
VL: DIVLTQSPATLSLSPGERATLSCRASQSISPYLHWYQQKPGQAPRLLIKHASQSISGIPARFSGSGSGSDFTLTISSLEPEDFAVYYCQNGHSFPLTFGGGTKVEIKR
B8: the IC50 in test [2] was determined as 5.6 nM.

The values are drawn from patent publication US20170362322A1 (published 2017).
